Source: the supplement of paper PMC10201428
± gives the standard deviation of the averaged measurements.

Assays:
[1] = system: VchCAST RNA-guided transposition machinery (E. coli BL21(DE3) host, lacZ target); test: relative integration efficiency (T-LR orientation) vs wild-type transposon end (log2 (normalized fold change)); transposon end mutated: right end (5 bp flank + 75 bp right end); higher = more efficient transposition
Procedure, shortened: (§1)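 Each barcoded pool, 1549 left-end or 1849 right-end transposon variants in a pUC57 mini-transposon donor, went into E. coli BL21(DE3) with a T7-driven effector plasmid (CRISPR array, tniQ-cas8-cas7-cas6, tnsA-tnsB-tnsC). Plates contained 0.1 mM IPTG and were held at 37°C for 18 h. Input plasmids and genomic integration junctions were PCR-amplified and read by Illumina sequencing, with two biological output replicates and four reference barcodes. Relative integration efficiency is the fold change of output over input barcode abundance, normalised to the reference barcodes and log-transformed.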

[2] = system: VchCAST RNA-guided transposition machinery (E. coli BL21(DE3) host, lacZ target); test: relative integration efficiency (T-RL orientation) vs wild-type transposon end (log2 (normalized fold change)); transposon end mutated: right end (5 bp flank + 75 bp right end); higher = more efficient transposition
Procedure, shortened: as §1

| Sequence | relative integration efficiency (log2) [1] | relative integration efficiency (log2) [2] |
| --- | --- | --- |
| ACATTTGTTGATACAACCATAAAATGATAATTACACCCATAAATTGATAATTATCCCACCCCATTTAACTATAACGCTCTGATCATAGTCAGACCAACATTGCTACGACCCGTATTCGCACCGACAC | 2.388 ± 0.023 | -1.3 ± 0.37 |
| ACATTTGTTGATACAACCATAAAATGATAATTACACCCATAAATTGATAATTATCTGACCCATAAATTGATATTGCCTCTGATCATAGTCAGACCAACATTGCTACGACCCGTATTCGCACCGACAC | 0.513 ± 0.03 | -0.393 ± 0.12 |
| ACATTTGTTGATACAACCATAAAATGATAATTACACCCATAAATTGATAATTATCTGTGCCATAAATTGATATTGCCTCTGATCATAGTCAGACCAACATTGCTACGACCCGTATTCGCACCGACAC | 2.04 ± 0.1 | -0.555 ± 0.23 |
| ACATTTGTTGATACAACCATAAAATGATAATTACACCCATAAATTGATAATTATGACACCGAATTTAACTATAACGCTCTGATCATAGTCAGACCAACATTGCTACGACCCGTATTCGCACCGACAC | 2.37 ± 0.096 | -1.22 ± 0.39 |
| ACATTTGTTGATACAACCATAAAATGATAATTACACCCATAAATTGATAATTATGTCACCCATAAATTGATATTGCCTCTGATCATAGTCAGACCAACATTGCTACGACCCGTATTCGCACCGACAC | 0.557 ± 0.054 | -0.72 ± 0.15 |
| ACATTTGTTGATACAACCATAAAATGATAATTACACCCATAAATTGATAATTATGTGTCCCATAAATTGATATTGCCTCTGATCATAGTCAGACCAACATTGCTACGACCCGTATTCGCACCGACAC | 1.63 ± 0.16 | -0.725 ± 0.24 |
| ACATTTGTTGATACAACCATAAAATGATAATTACACCCATAAATTGATAATTCACACCCATAAATTGATATTGCCTCTGATCATAGTCAGACCAACATTGCTACGACCCGTATTCGCACCGACACTG | 1.41 ± 0.045 | -1.06 ± 0.18 |
| ACATTTGTTGATACAACCATAAAATGATAATTACACCCATAAATTGATAATTCGACACAAACGCCCGGTCGCGGTAAGAGGATCATAGTCAGACCAACATTGCTACGACCCGTATTCGCACCGACAC | 3.748 ± 0.033 | 0.636 ± 0.17 |
| ACATTTGTTGATACAACCATAAAATGATAATTACACCCATAAATTGATAATTCGACCACCCATAAATTGATATTGCCTCTGATCATAGTCAGACCAACATTGCTACGACCCGTATTCGCACCGACAC | 0.317 ± 0.33 | -0.541 ± 0.14 |
| ACATTTGTTGATACAACCATAAAATGATAATTACACCCATAAATTGATAATTCGCACACCCATAAATTGATATTGCCTCTGATCATAGTCAGACCAACATTGCTACGACCCGTATTCGCACCGACAC | 0.189 ± 0.39 | -0.551 ± 0.065 |
| ACATTTGTTGATACAACCATAAAATGATAATTACACCCATAAATTGATAATTGTGACACCGAATTTAACTATAACGCTCTGATCATAGTCAGACCAACATTGCTACGACCCGTATTCGCACCGACAC | 2.87 ± 0.14 | -0.766 ± 0.25 |
| ACATTTGTTGATACAACCATAAAATGATAATTACACCCATAAATTGATAATTTACACACCCATAAATTGATATTGCCTCTGATCATAGTCAGACCAACATTGCTACGACCCGTATTCGCACCGACAC | 0.268 ± 0.15 | -0.0701 ± 0.25 |
| ACATTTGTTGATACAACCATAAAATGATAATTACACCCATAAATTGATAATTTAGTCACCCATAAATTGATATTGCCTCTGATCATAGTCAGACCAACATTGCTACGACCCGTATTCGCACCGACAC | 0.247 ± 0.11 | -0.447 ± 0.07 |
| ACATTTGTTGATACAACCATAAAATGATAATTACACCCATAAATTGATAATTTCACACCCATAAATTGATATTGCCTCTGATCATAGTCAGACCAACATTGCTACGACCCGTATTCGCACCGACACT | 0.745 ± 0.092 | -0.767 ± 0.17 |
| ACATTTGTTGATACAACCATAAAATGATAATTACACCCATAAATTGATACGGCGACACAAACGCCCGGTCGCGGTAAGAGGATCATAGTCAGACCAACATTGCTACGACCCGTATTCGCACCGACAC | 2.25 ± 0.24 | -0.726 ± 0.13 |
